Results taken from paper PMC10397247.

Columns and labels:
Test in all cases: two-hybrid library CCmax;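 note: natural log of median RNA to DNA barcode read ratio; higher means stronger binding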
4H1324-AA = target: T1, 4H1324-AA
T1 chain: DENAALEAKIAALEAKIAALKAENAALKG

4H1352-AA = target: T2, 4H1352-AA; conditions: mean of both orientations
T2 chain: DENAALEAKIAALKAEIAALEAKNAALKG

4H1401-AA = target: T3, 4H1401-AA; conditions: mean of both orientations
T3 chain: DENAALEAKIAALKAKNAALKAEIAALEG

4H1552-AA = target: T4, 4H1552-AA; conditions: mean of both orientations
T4 chain: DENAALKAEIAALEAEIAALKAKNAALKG

4H1636-AA = target: T5, 4H1636-AA; conditions: mean of both orientations
T5 chain: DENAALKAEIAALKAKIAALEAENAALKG

4H1842-AA = target: T6, 4H1842-AA
T6 chain: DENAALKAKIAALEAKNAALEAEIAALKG

4H1867-AA = target: T7, 4H1867-AA; conditions: mean of both orientations
T7 chain: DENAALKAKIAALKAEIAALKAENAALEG

4H2078-AA = target: T8, 4H2078-AA; conditions: mean of both orientations
T8 chain: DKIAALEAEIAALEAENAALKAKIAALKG

4H2151-AA = target: T9, 4H2151-AA; conditions: mean of both orientations
T9 chain: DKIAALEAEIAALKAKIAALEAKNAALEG

4H2165-AA = target: T10, 4H2165-AA; conditions: mean of both orientations
T10 chain: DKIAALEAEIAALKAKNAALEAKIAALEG

4H2190-AA = target: T11, 4H2190-AA; conditions: mean of both orientations
T11 chain: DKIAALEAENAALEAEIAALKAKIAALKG

4H2277-AA = target: T12, 4H2277-AA; conditions: mean of both orientations
T12 chain: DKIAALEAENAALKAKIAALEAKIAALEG

4H234-AA = target: T13, 4H234-AA; conditions: mean of both orientations
T13 chain: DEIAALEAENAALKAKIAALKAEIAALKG

4H2354-AA = target: T14, 4H2354-AA; conditions: mean of both orientations
T14 chain: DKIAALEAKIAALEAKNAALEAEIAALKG

4H2393-AA = target: T15, 4H2393-AA; conditions: mean of both orientations
T15 chain: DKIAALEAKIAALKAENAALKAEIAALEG

4H2466-AA = target: T16, 4H2466-AA
T16 chain: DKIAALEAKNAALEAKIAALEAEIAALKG

4H2505-AA = target: T17, 4H2505-AA; conditions: mean of both orientations
T17 chain: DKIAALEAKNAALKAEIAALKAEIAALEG

4H2575-AA = target: T18, 4H2575-AA; conditions: mean of both orientations
T18 chain: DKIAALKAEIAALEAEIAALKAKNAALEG

4H2617-AA = target: T19, 4H2617-AA; conditions: mean of both orientations
T19 chain: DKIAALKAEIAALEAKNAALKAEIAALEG

4H2642-AA = target: T20, 4H2642-AA; conditions: mean of both orientations
T20 chain: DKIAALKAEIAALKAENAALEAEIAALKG

4H2729-AA = target: T21, 4H2729-AA; conditions: mean of both orientations
T21 chain: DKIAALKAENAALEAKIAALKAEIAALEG

4H2754-AA = target: T22, 4H2754-AA; conditions: mean of both orientations
T22 chain: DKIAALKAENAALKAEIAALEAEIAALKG

4H2837-AA = target: T23, 4H2837-AA; conditions: mean of both orientations
T23 chain: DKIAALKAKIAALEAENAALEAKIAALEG

4H2883-AA = target: T24, 4H2883-AA; conditions: mean of both orientations
T24 chain: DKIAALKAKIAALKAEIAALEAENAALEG

4H2944-AA = target: T25, 4H2944-AA; conditions: mean of both orientations
T25 chain: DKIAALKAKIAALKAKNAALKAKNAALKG

4H2949-AA = target: T26, 4H2949-AA; conditions: mean of both orientations
T26 chain: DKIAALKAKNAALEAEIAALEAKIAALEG

4H3112-AA = target: T27, 4H3112-AA; conditions: mean of both orientations
T27 chain: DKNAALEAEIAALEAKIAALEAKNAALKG

4H317-AA = target: T28, 4H317-AA; conditions: mean of both orientations
T28 chain: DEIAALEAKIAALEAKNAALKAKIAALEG

4H3343-AA = target: T29, 4H3343-AA; conditions: mean of both orientations
T29 chain: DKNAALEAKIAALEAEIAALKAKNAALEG

4H335-AA = target: T30, 4H335-AA; conditions: mean of both orientations
T30 chain: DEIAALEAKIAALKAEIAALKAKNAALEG

4H342-AA = target: T31, 4H342-AA; conditions: mean of both orientations
T31 chain: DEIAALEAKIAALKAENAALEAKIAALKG

4H3427-AA = target: T32, 4H3427-AA; conditions: mean of both orientations
T32 chain: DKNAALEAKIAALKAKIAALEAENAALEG

4H3606-AA = target: T33, 4H3606-AA; conditions: mean of both orientations
T33 chain: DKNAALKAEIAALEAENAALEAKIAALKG

4H3627-AA = target: T34, 4H3627-AA; conditions: mean of both orientations
T34 chain: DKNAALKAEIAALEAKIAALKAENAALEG

4H3655-AA = target: T35, 4H3655-AA; conditions: mean of both orientations
T35 chain: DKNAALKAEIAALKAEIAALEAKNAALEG

4H3844-AA = target: T36, 4H3844-AA; conditions: mean of both orientations
T36 chain: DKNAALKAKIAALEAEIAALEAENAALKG

4H3921-AA = target: T37, 4H3921-AA; conditions: mean of both orientations
T37 chain: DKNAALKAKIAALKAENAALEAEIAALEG

4H429-AA = target: T38, 4H429-AA; conditions: mean of both orientations
T38 chain: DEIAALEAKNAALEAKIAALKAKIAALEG

4H454-AA = target: T39, 4H454-AA; conditions: mean of both orientations
T39 chain: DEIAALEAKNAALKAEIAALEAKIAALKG

4H48-AA = target: T40, 4H48-AA; conditions: mean of both orientations
T40 chain: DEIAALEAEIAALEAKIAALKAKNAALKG

4H566-AA = target: T41, 4H566-AA; conditions: mean of both orientations
T41 chain: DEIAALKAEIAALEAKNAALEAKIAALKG

4H605-AA = target: T42, 4H605-AA; conditions: mean of both orientations
T42 chain: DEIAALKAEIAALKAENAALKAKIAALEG

4H678-AA = target: T43, 4H678-AA; conditions: mean of both orientations
T43 chain: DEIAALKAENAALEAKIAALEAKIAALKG

4H717-AA = target: T44, 4H717-AA; conditions: mean of both orientations
T44 chain: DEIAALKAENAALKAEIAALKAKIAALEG

4H780-AA = target: T45, 4H780-AA; conditions: mean of both orientations
T45 chain: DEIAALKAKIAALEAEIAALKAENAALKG

4H794-AA = target: T46, 4H794-AA; conditions: mean of both orientations
T46 chain: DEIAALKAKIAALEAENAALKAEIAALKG

4H881-AA = target: T47, 4H881-AA; conditions: mean of both orientations
T47 chain: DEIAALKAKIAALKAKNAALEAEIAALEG

4H906-AA = target: T48, 4H906-AA; conditions: mean of both orientations
T48 chain: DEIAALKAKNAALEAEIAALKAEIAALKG

4H993-AA = target: T49, 4H993-AA; conditions: mean of both orientations
T49 chain: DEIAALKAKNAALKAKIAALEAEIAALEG

- interaction score (4H1324-AA): 1.4
- interaction score (4H1352-AA): 0.674
- interaction score (4H1401-AA): -1.6
- interaction score (4H1552-AA): 1.17
- interaction score (4H1636-AA): -0.551
- interaction score (4H1842-AA): -1.92
- interaction score (4H1867-AA): 0.462
- interaction score (4H2078-AA): 1.78
- interaction score (4H2151-AA): -0.928
- interaction score (4H2165-AA): -1.47
- interaction score (4H2190-AA): -1.14
- interaction score (4H2277-AA): -1.35
- interaction score (4H234-AA): -2.21
- interaction score (4H2354-AA): -1.59
- interaction score (4H2393-AA): -0.744
- interaction score (4H2466-AA): -1.2
- interaction score (4H2505-AA): -1.2
- interaction score (4H2575-AA): 0.676
- interaction score (4H2617-AA): -0.287
- interaction score (4H2642-AA): -0.934
- interaction score (4H2729-AA): -1.35
- interaction score (4H2754-AA): -1.3
- interaction score (4H2837-AA): -1.14
- interaction score (4H2883-AA): 1.32
- interaction score (4H2944-AA): -1.01
- interaction score (4H2949-AA): -1.16
- interaction score (4H3112-AA): 0.0224
- interaction score (4H317-AA): -1.41
- interaction score (4H3343-AA): 0.278
- interaction score (4H335-AA): -0.376
- interaction score (4H342-AA): -1.05
- interaction score (4H3427-AA): 0.0395
- interaction score (4H3606-AA): -1.02
- interaction score (4H3627-AA): 0.372
- interaction score (4H3655-AA): -0.51
- interaction score (4H3844-AA): 2.11
- interaction score (4H3921-AA): -1.15
- interaction score (4H429-AA): -1.18
- interaction score (4H454-AA): -0.814
- interaction score (4H48-AA): 1.07
- interaction score (4H566-AA): -1.31
- interaction score (4H605-AA): -1.44
- interaction score (4H678-AA): -1.52
- interaction score (4H717-AA): -1.26
- interaction score (4H780-AA): 0.567
- interaction score (4H794-AA): -1.34
- interaction score (4H881-AA): -1.69
- interaction score (4H906-AA): -1.42
- interaction score (4H993-AA): 1.28
B1: 4H1324-AA (peptide)
chain: DENAALEAKIAALEAKIAALKAENAALKG
